First the molecules themselves.
T1: 细胞实际分泌的信号素3A (UniProt Q14563)
T1 sequence (looked up): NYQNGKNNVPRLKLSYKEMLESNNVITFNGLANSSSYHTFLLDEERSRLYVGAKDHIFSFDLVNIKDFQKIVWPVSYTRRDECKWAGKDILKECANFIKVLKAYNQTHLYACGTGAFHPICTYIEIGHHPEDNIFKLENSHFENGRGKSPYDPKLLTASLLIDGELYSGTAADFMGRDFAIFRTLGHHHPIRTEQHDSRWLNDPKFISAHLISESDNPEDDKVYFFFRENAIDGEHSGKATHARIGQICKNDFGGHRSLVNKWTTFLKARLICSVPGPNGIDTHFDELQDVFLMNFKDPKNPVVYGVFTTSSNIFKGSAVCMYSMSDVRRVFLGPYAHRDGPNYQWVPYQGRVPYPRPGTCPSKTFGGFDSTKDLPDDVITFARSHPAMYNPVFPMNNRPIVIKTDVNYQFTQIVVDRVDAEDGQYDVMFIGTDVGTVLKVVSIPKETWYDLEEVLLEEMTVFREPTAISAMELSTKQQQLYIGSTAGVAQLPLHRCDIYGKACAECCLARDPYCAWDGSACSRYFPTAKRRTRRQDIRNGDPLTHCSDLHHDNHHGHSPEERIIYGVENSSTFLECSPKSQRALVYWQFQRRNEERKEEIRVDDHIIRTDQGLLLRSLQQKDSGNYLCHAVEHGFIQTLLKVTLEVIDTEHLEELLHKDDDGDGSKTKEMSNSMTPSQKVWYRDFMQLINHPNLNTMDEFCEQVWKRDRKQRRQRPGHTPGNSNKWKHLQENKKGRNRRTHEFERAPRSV

B1: 抗信号素3A scFv抗体片段 F11 (scFv, part only; not given: linker and tags, not shown: large carriers)
scFv, part: EVQLLESGGGLVQTGGSLRLSCAASGFTFSDYAMSWVRQAPGKGLEWVSWIYYDSGSKYYADSVKGRFTISRDNSKNTLYLQMNSLRAEDTAVYYCAKLNGDFDYWGQGTLVTVSSQSVLTQPPSASGTPGQRVTISCSGSSSNIGNNDVSWYQQLPGTAPKLLIYADSHRPSGVPDRFSGSKSGTSASLAISGLRSEDEADYYCGAWDSSLSGYVFGGGTKLTVL
B2: 抗信号素3A scFv抗体片段 A08 (scFv, part only; not given: linker and tags, not shown: large carriers)
scFv, part: EVQLLESGGGLVQPGGSLRLSCAASGFTFSDYAMSWVRQAPGKGLEWVSGIYYDDSSQYYADSVKGRFTISRDNSKNTLYLQMNSLRAEDTAVYYCAKNLGRFDYWGQGTLVTVSSQSVLTQPPSASGTPGQRVTISCTGSSSNIGSNAVTWYQQLPGTAPKLLIYDDNHRPSGVPDRFSGSKSGTSASLAISGLRSEDEADYYCGAWDDSLSAYVFGGGTKLTVL
B3: 抗信号素3A scFv抗体片段 C10 (scFv, part only; not given: linker and tags, not shown: large carriers)
scFv, part: EVQLLESGGGLVQPGGSLRLSCAASGFTFSDYAMSWVRQAPGKGLEWVSGIYYDDSSQYYADSVEGRFTISRDNSKNTLYLQMNSLRAEDTAVYYCARYLGLFDYWGQGTLVTVSSQSVLTQPPSASGTPGQRVTISCSGSSSNIGNNSVNWYQQLPGTAPKLLIYSDSQRPSGVPDRFSGSKSGTSASLAISGLRSEDEADYYCGSWDYSLSAYVFGGGTKLTVL

Three molecules from CN108290942A can be followed below.

The target of the assay is T1, 细胞实际分泌的信号素3A. As to the kind of experiment: cell-based or functional assay.
B1 displayed a 细胞生长速度 (EZ-Cytox, 131细胞, 50μg/ml scFv, 4天) of 70%; a 细胞迁移 (transwell, 83细胞) of 28%; a 细胞迁移 (transwell, 131细胞) of 7%; a 细胞迁移 (transwell, U87-MG细胞, 50μg/ml scFv) of 74%.
B2: the 细胞生长速度 (EZ-Cytox, 131细胞, 50μg/ml scFv, 4天) is 70%; the 细胞迁移 (transwell, 83细胞) is 21%; the 细胞迁移 (transwell, 131细胞) is 11%; the 细胞迁移 (transwell, U87-MG细胞, 50μg/ml scFv) was 78%.
Regarding B3, the 细胞生长速度 (EZ-Cytox, 131细胞, 50μg/ml scFv, 4天) was 70%; the 细胞迁移 (transwell, 83细胞) stood at 44%; the 细胞迁移 (transwell, 131细胞) is 19%; the 细胞迁移 (transwell, U87-MG细胞, 50μg/ml scFv) was 70%.
